Laboratory results reported in the supplement of paper PMC9112550, “Optimization of the antimicrobial peptide Bac7 by deep mutational scanning” (BMC Biology, 2022).

Tested on: Escherichia coli TOP10
Assay: shrunken log2 fold change of peptide-encoding DNA abundance (4.5 h post-induction vs induction); higher = less antimicrobial activity (less host growth inhibition)
Conditions: time post-induction: 4.5 h; library: site-saturation at positions 5, 18, 19, 20
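Further: peptides expressed intracellularly from a pBAD plasmid library in pooled LB shake-flask culture, induced with 0.3% L-arabinose, DNA abundance read by NGS, three biological replicates, DESeq2 with apeglm shrinkage.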

RRIRTRPPRLPRPRPRPNEPPRP
shrunken log2 fold change: -0.102

RRIRSRPPRLPRPRPRPLGPPRP
shrunken log2 fold change: 0.0761

RRIRGRPPRLPRPRPRPEPIPRP
shrunken log2 fold change: 0.296

RRIRPRPPRLPRPRPRPDVTPRP
shrunken log2 fold change: -0.399

RRIRWRPPRLPRPRPRPVLEPRP
shrunken log2 fold change: 0.227

RRIRERPPRLPRPRPRPHRRPRP
shrunken log2 fold change: 0.0407

RRIRGRPPRLPRPRPRPVDEPRP
shrunken log2 fold change: 1.05

RRIRVRPPRLPRPRPRPHIHPRP
shrunken log2 fold change: -0.545

RRIRTRPPRLPRPRPRPFAWPRP
shrunken log2 fold change: -0.0156

RRIRDRPPRLPRPRPRPSVGPRP
shrunken log2 fold change: 0.217

RRIRQRPPRLPRPRPRPCFNPRP
shrunken log2 fold change: -0.161

RRIRKRPPRLPRPRPRPNFHPRP
shrunken log2 fold change: 0.676

RRIRNRPPRLPRPRPRPHTKPRP
shrunken log2 fold change: -0.238

RRIRLRPPRLPRPRPRPQNQPRP
shrunken log2 fold change: -0.159

RRIRCRPPRLPRPRPRPNNVPRP
shrunken log2 fold change: -0.687

RRIRWRPPRLPRPRPRPWKIPRP
shrunken log2 fold change: -0.0733

RRIRHRPPRLPRPRPRPQKNPRP
shrunken log2 fold change: -0.3

RRIRERPPRLPRPRPRPVKHPRP
shrunken log2 fold change: 0.0875

RRIRSRPPRLPRPRPRPDKCPRP
shrunken log2 fold change: -0.173

RRIRYRPPRLPRPRPRPRKGPRP
shrunken log2 fold change: -0.013

RRIRARPPRLPRPRPRPACAPRP
shrunken log2 fold change: 0.922

RRIRPRPPRLPRPRPRPCTLPRP
shrunken log2 fold change: -0.029

RRIRRRPPRLPRPRPRPVKSPRP
shrunken log2 fold change: 0.625

RRIRFRPPRLPRPRPRPSVWPRP
shrunken log2 fold change: -0.229

RRIRCRPPRLPRPRPRPDVDPRP
shrunken log2 fold change: 0.0251

RRIRKRPPRLPRPRPRPEQVPRP
shrunken log2 fold change: 0.158

RRIRPRPPRLPRPRPRPSQVPRP
shrunken log2 fold change: -0.645

RRIRCRPPRLPRPRPRPDMHPRP
shrunken log2 fold change: 0.0405

RRIRYRPPRLPRPRPRPNYDPRP
shrunken log2 fold change: -0.746

RRIRCRPPRLPRPRPRPDVHPRP
shrunken log2 fold change: -0.241

RRIRPRPPRLPRPRPRPIRWPRP
shrunken log2 fold change: -0.0338

RRIRGRPPRLPRPRPRPWQYPRP
shrunken log2 fold change: -0.0381

RRIRKRPPRLPRPRPRPDYVPRP
shrunken log2 fold change: -0.0105

RRIRVRPPRLPRPRPRPSPGPRP
shrunken log2 fold change: 0.252

RRIRGRPPRLPRPRPRPDMHPRP
shrunken log2 fold change: 0.512

RRIRKRPPRLPRPRPRPLIPPRP
shrunken log2 fold change: -0.000217

RRIRGRPPRLPRPRPRPMIHPRP
shrunken log2 fold change: -0.0642

RRIRGRPPRLPRPRPRPNFNPRP
shrunken log2 fold change: 0.0556

RRIRDRPPRLPRPRPRPCHYPRP
shrunken log2 fold change: -0.639

RRIRMRPPRLPRPRPRPWYCPRP
shrunken log2 fold change: -0.336

RRIRRRPPRLPRPRPRPAGVPRP
shrunken log2 fold change: 0.518

RRIRSRPPRLPRPRPRPQTQPRP
shrunken log2 fold change: 0.198

RRIRSRPPRLPRPRPRPMIKPRP
shrunken log2 fold change: -0.464

RRIRNRPPRLPRPRPRPYKFPRP
shrunken log2 fold change: -0.286

RRIRVRPPRLPRPRPRPPGNPRP
shrunken log2 fold change: 0.17

RRIRPRPPRLPRPRPRPQINPRP
shrunken log2 fold change: -0.122

RRIRDRPPRLPRPRPRPTSCPRP
shrunken log2 fold change: 0.037

RRIRERPPRLPRPRPRPRFLPRP
shrunken log2 fold change: -0.18

RRIRTRPPRLPRPRPRPMDAPRP
shrunken log2 fold change: 0.0575

RRIRERPPRLPRPRPRPQLFPRP
shrunken log2 fold change: 0.0984

RRIRPRPPRLPRPRPRPVWCPRP
shrunken log2 fold change: 0.0172

RRIRDRPPRLPRPRPRPPQCPRP
shrunken log2 fold change: 0.243

RRIRPRPPRLPRPRPRPPNDPRP
shrunken log2 fold change: 0.111

RRIRHRPPRLPRPRPRPREAPRP
shrunken log2 fold change: -0.0215

RRIRTRPPRLPRPRPRPHWWPRP
shrunken log2 fold change: 0.203

RRIRNRPPRLPRPRPRPWWLPRP
shrunken log2 fold change: -0.106

RRIRMRPPRLPRPRPRPNYDPRP
shrunken log2 fold change: -0.149

RRIRVRPPRLPRPRPRPQNRPRP
shrunken log2 fold change: 0.112

RRIRDRPPRLPRPRPRPYYGPRP
shrunken log2 fold change: 0.127

RRIRPRPPRLPRPRPRPFPHPRP
shrunken log2 fold change: -0.129

RRIRKRPPRLPRPRPRPKYNPRP
shrunken log2 fold change: -0.267

RRIRIRPPRLPRPRPRPNNEPRP
shrunken log2 fold change: -0.597

RRIRTRPPRLPRPRPRPWIKPRP
shrunken log2 fold change: -0.231

RRIRCRPPRLPRPRPRPWCMPRP
shrunken log2 fold change: -0.585

RRIRTRPPRLPRPRPRPHMIPRP
shrunken log2 fold change: -0.138

RRIRDRPPRLPRPRPRPISEPRP
shrunken log2 fold change: -0.0429

RRIRGRPPRLPRPRPRPGFSPRP
shrunken log2 fold change: 0.644

RRIRFRPPRLPRPRPRPNTKPRP
shrunken log2 fold change: -0.323

RRIRNRPPRLPRPRPRPPKPPRP
shrunken log2 fold change: 0.145

RRIRGRPPRLPRPRPRPQTMPRP
shrunken log2 fold change: 0.672

RRIRQRPPRLPRPRPRPCLWPRP
shrunken log2 fold change: -0.162

RRIRYRPPRLPRPRPRPQKKPRP
shrunken log2 fold change: 0.0261

RRIRTRPPRLPRPRPRPEGSPRP
shrunken log2 fold change: 0.161

RRIRARPPRLPRPRPRPFSYPRP
shrunken log2 fold change: -0.0901

RRIRIRPPRLPRPRPRPGLCPRP
shrunken log2 fold change: 0.108

RRIRQRPPRLPRPRPRPQVEPRP
shrunken log2 fold change: -0.0173

RRIRWRPPRLPRPRPRPYMPPRP
shrunken log2 fold change: -0.695

RRIRSRPPRLPRPRPRPSETPRP
shrunken log2 fold change: -0.44

RRIRIRPPRLPRPRPRPNAEPRP
shrunken log2 fold change: -0.151

RRIRSRPPRLPRPRPRPVHDPRP
shrunken log2 fold change: -0.0657

RRIRIRPPRLPRPRPRPGECPRP
shrunken log2 fold change: -0.143

RRIRVRPPRLPRPRPRPKAKPRP
shrunken log2 fold change: 0.0989

RRIRWRPPRLPRPRPRPPPNPRP
shrunken log2 fold change: 0.928

RRIRTRPPRLPRPRPRPVRCPRP
shrunken log2 fold change: 0.382

RRIRCRPPRLPRPRPRPEQYPRP
shrunken log2 fold change: -0.322

RRIRHRPPRLPRPRPRPHTKPRP
shrunken log2 fold change: -0.0831

RRIRVRPPRLPRPRPRPKTHPRP
shrunken log2 fold change: -0.0994

RRIRMRPPRLPRPRPRPVIYPRP
shrunken log2 fold change: -0.0966

RRIRKRPPRLPRPRPRPECWPRP
shrunken log2 fold change: 0.744

RRIRTRPPRLPRPRPRPVWYPRP
shrunken log2 fold change: -0.456

RRIRDRPPRLPRPRPRPHFWPRP
shrunken log2 fold change: -0.0278

RRIRSRPPRLPRPRPRPHVRPRP
shrunken log2 fold change: 0.128

RRIRERPPRLPRPRPRPSLVPRP
shrunken log2 fold change: -0.0847

RRIRERPPRLPRPRPRPNFRPRP
shrunken log2 fold change: -0.479

RRIRYRPPRLPRPRPRPTQQPRP
shrunken log2 fold change: -0.00797

RRIRVRPPRLPRPRPRPVKDPRP
shrunken log2 fold change: 0.0828

RRIRCRPPRLPRPRPRPHSPPRP
shrunken log2 fold change: -0.422

RRIRWRPPRLPRPRPRPDLNPRP
shrunken log2 fold change: 0.392

RRIRTRPPRLPRPRPRPKLRPRP
shrunken log2 fold change: -0.0516

RRIRWRPPRLPRPRPRPQVPPRP
shrunken log2 fold change: -0.211

RRIRIRPPRLPRPRPRPNYPPRP
shrunken log2 fold change: -0.565

RRIRQRPPRLPRPRPRPGLEPRP
shrunken log2 fold change: 0.134

RRIRLRPPRLPRPRPRPWGKPRP
shrunken log2 fold change: -0.0201

RRIRPRPPRLPRPRPRPGLTPRP
shrunken log2 fold change: 0.0985

RRIRHRPPRLPRPRPRPACQPRP
shrunken log2 fold change: 0.0463

RRIRYRPPRLPRPRPRPFEPPRP
shrunken log2 fold change: -0.343

RRIRIRPPRLPRPRPRPANDPRP
shrunken log2 fold change: -0.135

RRIRRRPPRLPRPRPRPRVMPRP
shrunken log2 fold change: 0.413

RRIRYRPPRLPRPRPRPPAAPRP
shrunken log2 fold change: 0.454

RRIRARPPRLPRPRPRPPCHPRP
shrunken log2 fold change: 0.219

RRIRLRPPRLPRPRPRPDLHPRP
shrunken log2 fold change: -0.0386

RRIRVRPPRLPRPRPRPWRCPRP
shrunken log2 fold change: -0.0179

RRIRDRPPRLPRPRPRPPYDPRP
shrunken log2 fold change: -0.00841

RRIRGRPPRLPRPRPRPRFKPRP
shrunken log2 fold change: 0.449

RRIRIRPPRLPRPRPRPRHRPRP
shrunken log2 fold change: -0.0972

RRIRWRPPRLPRPRPRPGGDPRP
shrunken log2 fold change: 0.556

RRIRPRPPRLPRPRPRPAVLPRP
shrunken log2 fold change: 0.163

RRIRTRPPRLPRPRPRPCFWPRP
shrunken log2 fold change: 0.0653

RRIRIRPPRLPRPRPRPLWRPRP
shrunken log2 fold change: 0.156

RRIRVRPPRLPRPRPRPTQTPRP
shrunken log2 fold change: 0.0438

RRIRMRPPRLPRPRPRPSMEPRP
shrunken log2 fold change: 0.484

RRIRPRPPRLPRPRPRPVISPRP
shrunken log2 fold change: -0.00579

RRIRFRPPRLPRPRPRPITNPRP
shrunken log2 fold change: -0.352

RRIRLRPPRLPRPRPRPSYIPRP
shrunken log2 fold change: -0.427

RRIRARPPRLPRPRPRPEMRPRP
shrunken log2 fold change: 1.19
